Test results reported in US20150344570A1 (published 2015).

T1: FcγRIIb (human, UniProt P31994 43-217)
T1 construct: extracellular domain; also called FcgRIIb; 2b
T1 sequence (looked up): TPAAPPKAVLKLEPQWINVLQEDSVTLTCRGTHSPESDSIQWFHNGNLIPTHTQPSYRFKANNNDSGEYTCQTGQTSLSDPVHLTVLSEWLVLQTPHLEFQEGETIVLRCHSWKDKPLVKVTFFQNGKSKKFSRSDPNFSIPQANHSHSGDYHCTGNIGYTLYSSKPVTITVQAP

B1: GpH7-A5/GpH7-B3 variant N325_03V/GpL16-k0 (antibody, human IgG1, kappa)
heavy 1: not shown
heavy 2: not shown
light: DIVMTQSPLSLPVTPGEPASISCQASESLVHSNRNTYLHWYLQKPGQSPQLLIYKVSNRFSGVPDRFSGSGSGTDFTLKISRVEAEDVGVYYCSQNTHVPPTFGQGTKVEIERTVAAPSVFIFPPSDEQLKSGTASVVCLLNNFYPREAKVQWKVDNALQSGNSQESVTEQDSKDSTYSLSSTLTLSKADYEKHKVYACEVTHQGLSSPVTKSFNRGEC
notes: mutation in the GpH7-B3 chain only; also called He Ab
B2: GpH7-A5/GpH7-B3 variant N325_08L/GpL16-k0 (antibody, human IgG1, kappa)
heavy 1: not shown
heavy 2: not shown
light: B1 light
notes: as for B1
B3: GpH7-A5/GpH7-B3 variant L328_13S/GpL16-k0 (antibody, human IgG1, kappa)
heavy 1: not shown
heavy 2: not shown
light: B1 light
notes: as for B1
B4: GpH7-A5/GpH7-B3 variant N325_13S/GpL16-k0 (antibody, human IgG1, kappa)
heavy 1: not shown
heavy 2: not shown
light: B1 light
notes: as for B1
B5: GpH7-A5/GpH7-B3 variant P331_15Y/GpL16-k0 (antibody, human IgG1, kappa)
heavy 1: not shown
heavy 2: not shown
light: B1 light
notes: as for B1
B6: GpH7-A5/GpH7-B3 variant P331_03V/GpL16-k0 (antibody, human IgG1, kappa)
heavy 1: not shown
heavy 2: not shown
light: B1 light
notes: as for B1
B7: GpH7-A5/GpH7-B3 variant P331_07I/GpL16-k0 (antibody, human IgG1, kappa)
heavy 1: not shown
heavy 2: not shown
light: B1 light
notes: as for B1
B8: GpH7-A5/GpH7-B3 variant P331_10E/GpL16-k0 (antibody, human IgG1, kappa)
heavy 1: not shown
heavy 2: not shown
light: B1 light
notes: as for B1
B9: GpH7-A5/GpH7-B3 variant S337_07I/GpL16-k0 (antibody, human IgG1, kappa)
heavy 1: not shown
heavy 2: not shown
light: B1 light
notes: as for B1
B10: GpH7-A5/GpH7-B3 variant N325_04F/GpL16-k0 (antibody, human IgG1, kappa)
heavy 1: not shown
heavy 2: not shown
light: B1 light
notes: as for B1
B11: GpH7-A5/GpH7-B3 variant L328_10E/GpL16-k0 (antibody, human IgG1, kappa)
heavy 1: not shown
heavy 2: not shown
light: B1 light
notes: as for B1
B12: GpH7-A5/GpH7-B3 variant L328_07I/GpL16-k0 (antibody, human IgG1, kappa)
heavy 1: not shown
heavy 2: not shown
light: B1 light
notes: as for B1
B13: GpH7-A5/GpH7-B3 variant N325_07I/GpL16-k0 (antibody, human IgG1, kappa)
heavy 1: not shown
heavy 2: not shown
light: B1 light
notes: as for B1
B14: GpH7-A5/GpH7-B3 variant P331_16H/GpL16-k0 (antibody, human IgG1, kappa)
heavy 1: not shown
heavy 2: not shown
light: B1 light
notes: as for B1
B15: GpH7-A5/GpH7-B3 variant T335_18N/GpL16-k0 (antibody, human IgG1, kappa)
heavy 1: not shown
heavy 2: not shown
light: B1 light
notes: as for B1
B16: GpH7-A5/GpH7-B3 variant T335_04F/GpL16-k0 (antibody, human IgG1, kappa)
heavy 1: not shown
heavy 2: not shown
light: B1 light
notes: as for B1
B17: GpH7-A5/GpH7-B3 variant S337_08L/GpL16-k0 (antibody, human IgG1, kappa)
heavy 1: not shown
heavy 2: not shown
light: B1 light
notes: as for B1
B18: GpH7-A5/GpH7-B3 variant N325_06M/GpL16-k0 (antibody, human IgG1, kappa)
heavy 1: not shown
heavy 2: not shown
light: B1 light
notes: as for B1
B19: GpH7-A5/GpH7-B3 variant L328_19Q/GpL16-k0 (antibody, human IgG1, kappa)
heavy 1: not shown
heavy 2: not shown
light: B1 light
notes: as for B1
B20: GpH7-A5/GpH7-B3 variant L328_09D/GpL16-k0 (antibody, human IgG1, kappa)
heavy 1: not shown
heavy 2: not shown
light: B1 light
notes: as for B1
B21: GpH7-A5/GpH7-B3 variant L328_20W/GpL16-k0 (antibody, human IgG1, kappa)
heavy 1: not shown
heavy 2: not shown
light: B1 light
notes: as for B1
B22: GpH7-A5/GpH7-B3 variant P331_20W/GpL16-k0 (antibody, human IgG1, kappa)
heavy 1: not shown
heavy 2: not shown
light: B1 light
notes: as for B1

Biological target: T2, FcγRIIIa (human, UniProt P08637 17-208)
T2 construct: extracellular domain; also called FcgRIIIa; 3a
Test: SPR (Biacore), relative binding

T2 sequence (P08637 17-208): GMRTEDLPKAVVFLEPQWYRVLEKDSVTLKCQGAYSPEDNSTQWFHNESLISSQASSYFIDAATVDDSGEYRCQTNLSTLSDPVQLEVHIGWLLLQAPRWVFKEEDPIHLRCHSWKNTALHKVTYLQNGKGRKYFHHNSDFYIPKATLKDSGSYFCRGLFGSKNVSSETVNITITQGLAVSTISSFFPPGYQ

Row | He/Con_3a | Binder
1 | 30.3 % of GpH7-A5/GpH7-B3/GpL16-k0 | B1
2 | 33.3 % of GpH7-A5/GpH7-B3/GpL16-k0 | B2
3 | 71.7 % of GpH7-A5/GpH7-B3/GpL16-k0 | B3
4 | 65.1 % of GpH7-A5/GpH7-B3/GpL16-k0 | B4
5 | 81.9 % of GpH7-A5/GpH7-B3/GpL16-k0 | B5
6 | 73.2 % of GpH7-A5/GpH7-B3/GpL16-k0 | B6
7 | 66 % of GpH7-A5/GpH7-B3/GpL16-k0 | B7
8 | 75.1 % of GpH7-A5/GpH7-B3/GpL16-k0 | B8
9 | 94.8 % of GpH7-A5/GpH7-B3/GpL16-k0 | B9
10 | 20.7 % of GpH7-A5/GpH7-B3/GpL16-k0 | B10
11 | 53.4 % of GpH7-A5/GpH7-B3/GpL16-k0 | B11
12 | 84 % of GpH7-A5/GpH7-B3/GpL16-k0 | B12
13 | 28.7 % of GpH7-A5/GpH7-B3/GpL16-k0 | B13
14 | 80.2 % of GpH7-A5/GpH7-B3/GpL16-k0 | B14
15 | 98.8 % of GpH7-A5/GpH7-B3/GpL16-k0 | B15
16 | 96 % of GpH7-A5/GpH7-B3/GpL16-k0 | B16
17 | 96.9 % of GpH7-A5/GpH7-B3/GpL16-k0 | B17
18 | 31.4 % of GpH7-A5/GpH7-B3/GpL16-k0 | B18
19 | 81.1 % of GpH7-A5/GpH7-B3/GpL16-k0 | B19
20 | 47.8 % of GpH7-A5/GpH7-B3/GpL16-k0 | B20
21 | 37.4 % of GpH7-A5/GpH7-B3/GpL16-k0 | B21
22 | 78.6 % of GpH7-A5/GpH7-B3/GpL16-k0 | B22

Biological target: T1, FcγRIIb
Test: SPR (Biacore), relative binding

Row | He/Con_2b | Binder
23 | 111 % of GpH7-A5/GpH7-B3/GpL16-k0 | B1
24 | 197 % of GpH7-A5/GpH7-B3/GpL16-k0 | B2
25 | 149 % of GpH7-A5/GpH7-B3/GpL16-k0 | B3
26 | 177 % of GpH7-A5/GpH7-B3/GpL16-k0 | B4
27 | 114 % of GpH7-A5/GpH7-B3/GpL16-k0 | B5
28 | 119 % of GpH7-A5/GpH7-B3/GpL16-k0 | B6
29 | 114 % of GpH7-A5/GpH7-B3/GpL16-k0 | B7
30 | 116 % of GpH7-A5/GpH7-B3/GpL16-k0 | B8
31 | 104 % of GpH7-A5/GpH7-B3/GpL16-k0 | B9
32 | 143 % of GpH7-A5/GpH7-B3/GpL16-k0 | B10
33 | 172 % of GpH7-A5/GpH7-B3/GpL16-k0 | B11
34 | 160 % of GpH7-A5/GpH7-B3/GpL16-k0 | B12
35 | 171 % of GpH7-A5/GpH7-B3/GpL16-k0 | B13
36 | 116 % of GpH7-A5/GpH7-B3/GpL16-k0 | B14
37 | 102 % of GpH7-A5/GpH7-B3/GpL16-k0 | B15
38 | 103 % of GpH7-A5/GpH7-B3/GpL16-k0 | B16
39 | 100 % of GpH7-A5/GpH7-B3/GpL16-k0 | B17
40 | 217 % of GpH7-A5/GpH7-B3/GpL16-k0 | B18
41 | 105 % of GpH7-A5/GpH7-B3/GpL16-k0 | B19
42 | 199 % of GpH7-A5/GpH7-B3/GpL16-k0 | B20
43 | 235 % of GpH7-A5/GpH7-B3/GpL16-k0 | B21
44 | 111 % of GpH7-A5/GpH7-B3/GpL16-k0 | B22
